Results on 39 variants are retold here after the RNAGym collection of RNA variant scans (doi:10.7554/elife.80360).

To fix the notation:
B1: CPEB3 Ribozyme (parent)
chain: GGGGGCCACAGCAGAAGCGUUCACGUCGCGGCCCCUGUCAGAUUCUGGUGAAUCUGCGAAUUCUGCUGU

The variants in this data set derive from B1. Briefly: self-cleavage, relative activity (ratio to wild type); higher = more cleavage; co-transcriptional.
For the variant GGGGGCCACAGCAGAGGCGUUCACGUCGCGGCCCCUGUCAGAUUCUCGUGAAUCUGCGAAUUCUGCUGU [A16G G47C], the self-cleavage came out at 1.02.

In the case of GGGGGCCACAGCAGAGGCGUUCACGUCGCGGCCCCUGUCAGAUUCUAGUGAAUCUGCGAAUUCUGCUGU [A16G G47A], the self-cleavage came to 0.933.

As for GGGGGCCACAGCAGAUGCGUUCACGUCGCGGCCCCUGUCAGUUUCUGGUGAAUCUGCGAAUUCUGCUGU [A16U A42U], the self-cleavage came out at 0.82.

Turning to GGGGGCCACAGCAGAGGCGUUCACGUCGCGGCCCCUGUCAGAUUCUGGUGAAUCUGCGAAUUCCGCUGU [A16G U64C], the self-cleavage came out at 0.513.

Turning to GGGGGCCACAGCAGAGGGGUUCACGUCGCGGCCCCUGUCAGAUUCUGGUGAAUCUGCGAAUUCUGCUGU [A16G C18G], the self-cleavage is 0.129.

On to GGGGGCCACAGCAGACGCGUUCACGUCGCGGCCCCUGUCAGAUUCUGGUGAAUCUGCGAAUGCUGCUGU [A16C U62G], for which the self-cleavage turned out to be 0.148.

With GGGGGCCACAGCAGACGCGUUCACGUCGCGGCCCCUGUCAGAUUCUGGUGAAUCUGCGAAUCCUGCUGU [A16C U62C], the self-cleavage is 0.222.

As for GGGGGCCACAGCAGAGGCGUUCACGUCGCGGCCCAUGUCAGAUUCUGGUGAAUCUGCGAAUUCUGCUGU [A16G C35A], the self-cleavage is 0.179.

With GGGGGCCACAGCAGAGGCGUUCACGUCGCGGCCCGUGUCAGAUUCUGGUGAAUCUGCGAAUUCUGCUGU [A16G C35G], the self-cleavage came to 0.373.

As for GGGGGCCACAGCAGAUGCGUUCACGUCGCGGCCCCUGUCAGAUUCUGGUGCAUCUGCGAAUUCUGCUGU [A16U A51C], the self-cleavage amounted to 0.71.

For the variant GGGGGCCACAGCAGAGGCGUUCACGUCGCGGCCCCUGUCAGAUUCUGGUGAAUAUGCGAAUUCUGCUGU [A16G C54A], the self-cleavage was 0.413.

Consider GGGGGCCACAGCAGAGGCGUUCACGUCGCGGCCCCUGUCAGAUUCUGGUGAAUGUGCGAAUUCUGCUGU [A16G C54G], for which the self-cleavage worked out at 0.581.

GGGGGCCACAGCAGAGGCGUUCACGUCGCGGCCCCUGUCAGAUUCUGGUGAAUCGGCGAAUUCUGCUGU [A16G U55G]: the self-cleavage stood at 0.67.

Consider GGGGGCCACAGCAGAGGCGUUCACGUCGCGGCCCCUGUCAGAUUCUGGUGAAUCAGCGAAUUCUGCUGU [A16G U55A], for which the self-cleavage was determined as 0.659.

Consider GGGGGCCACAGCAGAGGCGUUCACGUUGCGGCCCCUGUCAGAUUCUGGUGAAUCUGCGAAUUCUGCUGU [A16G C27U], for which the self-cleavage was found to be 0.228.

For the variant GGGGGCCACAGCAGAGGCGUUCACGUGGCGGCCCCUGUCAGAUUCUGGUGAAUCUGCGAAUUCUGCUGU [A16G C27G], the self-cleavage is 0.102.

GGGGGCCACAGCAGAGGCGUUCACGUAGCGGCCCCUGUCAGAUUCUGGUGAAUCUGCGAAUUCUGCUGU [A16G C27A]: the self-cleavage is 0.481.

Regarding GGGGGCCACAGCAGAGGCGUUCACGUCACGGCCCCUGUCAGAUUCUGGUGAAUCUGCGAAUUCUGCUGU [A16G G28A], the self-cleavage came out at 0.215.

On to GGGGGCCACAGCAGAGGCGUUCACGUCUCGGCCCCUGUCAGAUUCUGGUGAAUCUGCGAAUUCUGCUGU [A16G G28U], for which the self-cleavage is 0.188.

As for GGGGGCCACAGCAGAGGCGUUCACGUCGCGGCCCCUGUCAGAUUCUGGUGAAUCUGCAAAUUCUGCUGU [A16G G58A], the self-cleavage came to 0.932.

Consider GGGGGCCACAGCAGAGGCGUUCACGUCGCGGCCCCUGUCAGAUUCUGGUGAAUCUGCUAAUUCUGCUGU [A16G G58U], for which the self-cleavage was determined as 0.962.

On to GGGGGCCACAGCAGACGCGUUCACGUCGCGGCCCCUGUCAGAUUCUGGUGAAUCUGCGAAUUCAGCUGU [A16C U64A], for which the self-cleavage is 0.0981.

For the variant GGGGGCCACAGCAGACGCGUUCACGUCGCGGCCCCUGUCAGAUUCUGGUGAAUCUGCGAAUUCCGCUGU [A16C U64C], the self-cleavage was determined as 0.145.

For GGGGGCCACAGCAGAGGCGUUCACGUCGCGGCCCCUGUCAGAUUCUGGUGAAUCUGCGAAUUCUGCUGC [A16G U69C], the self-cleavage amounted to 1.08.

On to GGGGGCCACAGCAGAGGCGUUCACGUCGCGGCCCCUGUCAGAUUCUGGUGAAUCUGCGAAUUCUGCUAU [A16G G68A], for which the self-cleavage is 1.02.

With GGGGGCCACAGCAGAGGCGUUCACGUCGCGGCCCCUGUCAGAUUCUGGUGAAUCUGCGAAUUCUGAUGU [A16G C66A], the self-cleavage stood at 0.579.

GGGGGCCACAGCAGAGGCGUUCACGUCGCGGCCCCUGUCAGAUUCUGGAGAAUCUGCGAAUUCUGCUGU [A16G U49A]: the self-cleavage is 0.598.

For the variant GGGGGCCACAGCAGAGGCGUUCACGUCGCGGCCCCUGUCAGAUUCUGGCGAAUCUGCGAAUUCUGCUGU [A16G U49C], the self-cleavage is 0.854.

Regarding GGGGGCCACAGCAGAGCCGUUCACGUCGCGGCCCCUGUCAGAUUCUGGUGAAUCUGCGAAUUCUGCUGU [A16G G17C], the self-cleavage came to 0.131.

Regarding GGGGGCCACAGCAGAGGCGUUCACGUCGCGGCCCCUGUCAGAUUCUGGUGAAUCUGCGAAUUCUGCAGU [A16G U67A], the self-cleavage was 0.907.

Regarding GGGGGCCACAGCAGACGCGUUCACGUCGCGGCCCCUGUCAGAUUCUGGUGAAUCUGCGAAUUCUGCCGU [A16C U67C], the self-cleavage was 0.289.

Turning to GGGGGCCACAGCAGAGGCGUUCACGUCGGGGCCCCUGUCAGAUUCUGGUGAAUCUGCGAAUUCUGCUGU [A16G C29G], the self-cleavage amounted to 0.309.

With GGGGGCCACAGCAGAGGCGUUCACGCCGCGGCCCCUGUCAGAUUCUGGUGAAUCUGCGAAUUCUGCUGU [A16G U26C], the self-cleavage amounted to 0.555.

As to GGGGGCCACAGCAGAGGCGUUCACGUCGCGGCCCCUGUCAGAUUCUGGUGAAUCUGCGAAUUUUGCUGU [A16G C63U], the self-cleavage came to 0.861.

Take GGGGGCCACAGCAGAGGCGUUCACGUCGCGGCCCCUGGCAGAUUCUGGUGAAUCUGCGAAUUCUGCUGU [A16G U38G]: the self-cleavage came out at 0.143.

On to GGGGGCCACAGCAGAGGCGUUCACGUCGCGGCCCCUGUCAGAUUCAGGUGAAUCUGCGAAUUCUGCUGU [A16G U46A], for which the self-cleavage was found to be 0.948.

For the variant GGGGGCCACAGCAGAGGCAUUCACGUCGCGGCCCCUGUCAGAUUCUGGUGAAUCUGCGAAUUCUGCUGU [A16G G19A], the self-cleavage was 0.163.

For the variant GGGGGCCACAGCAGAGGCUUUCACGUCGCGGCCCCUGUCAGAUUCUGGUGAAUCUGCGAAUUCUGCUGU [A16G G19U], the self-cleavage was found to be 0.184.

For GGGGGCCACAGCAGAGGCCUUCACGUCGCGGCCCCUGUCAGAUUCUGGUGAAUCUGCGAAUUCUGCUGU [A16G G19C], the self-cleavage is 0.158.
